Results published in patent US20220281976A1.

Tests used:
human CD33 (human) [1] = biological target: human CD33 (human) (UniProt P20138); experiment: flow cytometry, human primary monocytes
human CD33 (human) [2] = biological target: human CD33 (human) (UniProt P20138); experiment: flow cytometry, human primary dendritic cells
human CD33 (human) [3] = biological target: human CD33 (human) (UniProt P20138); experiment: flow cytometry, human primary macrophages
human CD33 (human) [4] = biological target: human CD33 (human) (UniProt P20138); experiment: flow cytometry, human primary T cells

Sequence of human CD33 (human) (P20138 18-364): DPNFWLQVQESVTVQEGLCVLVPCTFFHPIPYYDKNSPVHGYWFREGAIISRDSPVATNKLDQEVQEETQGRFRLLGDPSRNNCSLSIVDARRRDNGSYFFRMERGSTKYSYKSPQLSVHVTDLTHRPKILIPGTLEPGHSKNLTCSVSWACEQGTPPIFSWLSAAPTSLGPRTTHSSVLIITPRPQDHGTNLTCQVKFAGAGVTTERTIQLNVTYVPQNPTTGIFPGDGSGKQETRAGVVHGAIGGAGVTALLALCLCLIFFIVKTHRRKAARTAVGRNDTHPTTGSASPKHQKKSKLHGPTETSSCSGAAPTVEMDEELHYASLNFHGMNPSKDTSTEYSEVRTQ

isotype control antibody showed a Monocyte MFI (human CD33 (human) [1]) of 43.2, a DC MFI (human CD33 (human) [2]) of 178 and a Macrophage MFI (human CD33 (human) [3]) of 451. For the same substance, the T cell MFI (human CD33 (human) [4]) was 42.9.
